Assay results from US20230203204A1 (published 2023).

Biological target: T1, recombinant human RANKL-murine Fc fusion protein (Sino Biological Inc.) (human, UniProt O14788 136-317, limits assumed)
T1 construct: Bought; not shown: murine Fc
T1 sequence (looked up): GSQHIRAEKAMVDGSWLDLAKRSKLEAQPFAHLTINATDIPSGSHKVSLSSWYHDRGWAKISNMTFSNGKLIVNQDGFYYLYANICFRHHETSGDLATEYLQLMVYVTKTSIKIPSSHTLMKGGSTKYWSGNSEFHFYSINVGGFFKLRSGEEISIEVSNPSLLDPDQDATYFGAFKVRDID
Assay: ELISA, human RANKL-murine Fc coated at 1 ug/mL, fusion protein titrated, anti-human IgG Fc-AP detection

- EC50: 0.04 µg/mL
B1: OPG-Fc (Sino Biological Inc.) (Fc fusion, UniProt O00300 22-401, looked up)
chain: ETFPPKYLHYDEETSHQLLCDKCPPGTYLKQHCTAKWKTVCAPCPDHYYTDSWHTSDECLYCSPVCKELQYVKQECNRTHNRVCECKEGRYLEIEFCLKHRSCPPGFGVVQAGTPERNTVCKRCPDGFFSNETSSKAPCRKHTNCSVFGLLLTQKGNATHDNICSGNSESTQKCGIDVTLCEEAFFRFAVPTKFTPNWLSVLVDNLPGTKVNAESVERIKRQHSSQEQTFQLLKLWKHQNKDQDIVKKIIQDIDLCENSVQRHIGHANLTFEQLRSLMESLPGKKVGAEDIEKTIKACKPSDQILKLLSLWRIKNGDQDTLKGLMHALKHSKTYHFPKTVTQSLKKTIRFLHSFTMYKLYQKLFLEMIGNQVQSVKISCL
notes: not shown: Fc part of the bought product
